The record followed here is patent US20210379157A1 (UNIVERSITY OF ULSTER, published 2021).

Where no end group is shown, it is not given here. [ ]: non-standard residue; d: D form.

The target of the experiment is T1, GIP receptor (human, UniProt P48546 22-466).
T1 sequence (looked up): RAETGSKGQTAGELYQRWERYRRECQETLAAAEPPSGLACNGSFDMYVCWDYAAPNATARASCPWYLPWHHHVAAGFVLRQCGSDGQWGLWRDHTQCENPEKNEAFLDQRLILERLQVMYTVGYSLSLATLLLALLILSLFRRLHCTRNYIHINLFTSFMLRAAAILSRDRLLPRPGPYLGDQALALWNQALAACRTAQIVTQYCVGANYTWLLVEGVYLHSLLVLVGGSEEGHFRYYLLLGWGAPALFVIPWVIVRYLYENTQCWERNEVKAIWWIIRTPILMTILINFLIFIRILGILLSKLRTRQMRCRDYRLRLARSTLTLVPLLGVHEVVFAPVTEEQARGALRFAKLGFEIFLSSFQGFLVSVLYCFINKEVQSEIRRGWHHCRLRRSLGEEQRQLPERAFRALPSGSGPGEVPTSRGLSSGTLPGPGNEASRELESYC
The experiment can be described thus: cell-based or functional assay.

As to Y[dA]EGTFISDYSIAMHPQQPWILGAADDDDDD [(DAla2)GIP/xenin-8-Gln(L-Asp)], the “cAMP production in SaOS-2 cells, lowest effective concentration” value (from here on “cAMP production in SaOS-2 cells”) amounted to 10 nM.

For Y[dA]EGTFISDYSIAMHPQQPWIL [(DAla2)GIP/xenin-8-Gln], the “cAMP production in SaOS-2 cells” value is 0.1 nM.

For the molecule Y[dA]EGTFISDYSIAMHPQQPWILGAAEEEEEE [(DAla2)GIP/xenin-8-Gln(L-Glu)], the “cAMP production in SaOS-2 cells” value worked out at 1000 nM.
